Where a chain is given by its changes, count along the chain named. Each block holds one binder with its values, some of them ahead of it.
Biological target: human ROR1 extracellular domain-Fc fusion (human) (UniProt Q01973)
Experiment: SPR, hROR1 ECD-Fc on chip

Kd: 8.92 nM | koff: 0.00567 s⁻¹ | kon: 636000 M⁻¹ s⁻¹
B1: D3 ADV1 dimer (VNAR, part only; not given: Linker between the domains, not shown: small tags and cut ends)
chain, part: ASVNQSPSSLSASVGDRVTITCVLTDTSYGLYSTSWFRKNPGTTDWERMSIGGRYSESVNKGAKSFTLTISSLQPEDSATYYCKAQSGMAISTGSGHGYNWYDGAGTKVEIKASVNQSPSSLSASVGDRVTITCVLTDTSYGLYSTSWFRKNPGTTDWERMSIGGRYSESVNKGAKSFTLTISSLQPEDSATYYCKAQSGMAISTGSGHGYNWYDGAGTKVEIKQASGAHHHHHHGAEFEQKLISEEDLG

Kd: 26.2 nM | koff: 0.016 s⁻¹ | kon: 609000 M⁻¹ s⁻¹
B2: D3 ADV2 dimer (VNAR, part only; not given: Linker between the domains, not shown: small tags and cut ends)
chain, part: B1 chain, part with A1T, S2R, N4D, A113T, S114R, N116D
